Substitutions are numbered along the chain they refer to. Numbers in names are those of the source. Each block holds one binder with its values, some of them ahead of it.
Tests used:
[1] = target: T1, rHuman Notch-1/Fc Chimera, CF (R&D Systems Cat#3647-TK) (human, UniProt P46531 19-526); assay: ECL multispot (MSD) assay, spotted antigen; Fab 2.00 (head prints uM)
T1 construct: Bought recombinant protein; Fc part of the bought chimera not given

[2] = target: T2, Recombinant Human DLL4 (R&D Systems Cat#1506-D4/CF) (human, UniProt Q9NR61 27-524); assay: as above
T2 construct: Bought recombinant protein; also called delta-like protein 4

[3] = target: T3, rHuman CD44/Fc Chimera, CF (R&D Systems Cat#3660-CD) (human, UniProt P16070 21-220); assay: as above
T3 construct: Bought recombinant protein; Fc part of the bought chimera not given

[4] = target: T4, rHuman Erythropoietin R/Fc Chimera, CF (R&D Systems Cat#963-ER) (human, UniProt P19235 25-250); assay: as above
T4 construct: Bought recombinant protein; also called EPO R; EPO R/Fc; Fc part of the bought chimera not given
T4 sequence (looked up): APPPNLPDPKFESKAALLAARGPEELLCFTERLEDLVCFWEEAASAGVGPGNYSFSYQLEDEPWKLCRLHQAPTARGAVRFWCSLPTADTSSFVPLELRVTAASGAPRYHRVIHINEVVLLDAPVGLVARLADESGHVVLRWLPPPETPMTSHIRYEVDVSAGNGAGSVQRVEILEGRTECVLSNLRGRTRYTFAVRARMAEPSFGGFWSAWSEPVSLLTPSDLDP

[5] = target: T5, rHuman IGF-1 sR, CF (R&D Systems Cat#391-GR) (human, UniProt P08069 31-932); assay: as above
T5 construct: Bought soluble receptor; The column head prints only 'IGF-1'; also called insulin-like growth factor-1 soluble receptor

[6] = target: T6, rHuman EGF R/Fc Chimera, CF (R&D Systems Cat#344-ER) (human, UniProt P00533 25-645); assay: as above
T6 construct: Bought recombinant protein; Fc part of the bought chimera not given

[7] = target: T7, rHuman ErbB2/Fc Chimera, CF (R&D Systems Cat#1129-ER) (human, UniProt P04626 23-652); assay: as above
T7 construct: Bought recombinant protein; Fc part of the bought chimera not given

[8] = target: T1, rHuman Notch-1/Fc Chimera, CF (R&D …); assay: ECL multispot (MSD) assay, spotted antigen; Fab 0.20 (head prints uM)
[9] = target: T2, Recombinant Human DLL4 (R&D Systems …); assay: as above
[10] = target: T3, rHuman CD44/Fc Chimera, CF (R&D Systems …); assay: as above
[11] = target: T4, rHuman Erythropoietin R/Fc Chimera, CF …; assay: as above
[12] = target: T5, rHuman IGF-1 sR, CF (R&D Systems …); assay: as above
[13] = target: T6, rHuman EGF R/Fc Chimera, CF (R&D …); assay: as above
[14] = target: T7, rHuman ErbB2/Fc Chimera, CF (R&D …); assay: as above
[15] = target: T1, rHuman Notch-1/Fc Chimera, CF (R&D …); assay: ECL multispot (MSD) assay, spotted antigen; Fab 200.00 (head prints uM)
[16] = target: T2, Recombinant Human DLL4 (R&D Systems …); assay: as above
[17] = target: T3, rHuman CD44/Fc Chimera, CF (R&D Systems …); assay: as above
[18] = target: T4, rHuman Erythropoietin R/Fc Chimera, CF …; assay: as above
[19] = target: T5, rHuman IGF-1 sR, CF (R&D Systems …); assay: as above
[20] = target: T6, rHuman EGF R/Fc Chimera, CF (R&D …); assay: as above
[21] = target: T7, rHuman ErbB2/Fc Chimera, CF (R&D …); assay: as above
[22] = target: T1, rHuman Notch-1/Fc Chimera, CF (R&D …); assay: ECL multispot (MSD) assay, spotted antigen; Fab 20.00 (head prints uM)
[23] = target: T2, Recombinant Human DLL4 (R&D Systems …); assay: as above
[24] = target: T3, rHuman CD44/Fc Chimera, CF (R&D Systems …); assay: as above
[25] = target: T4, rHuman Erythropoietin R/Fc Chimera, CF …; assay: as above
[26] = target: T5, rHuman IGF-1 sR, CF (R&D Systems …); assay: as above
[27] = target: T6, rHuman EGF R/Fc Chimera, CF (R&D …); assay: as above
[28] = target: T7, rHuman ErbB2/Fc Chimera, CF (R&D …); assay: as above
[29] = target: T8, Recombinant Human DLL4 (delta-like protein 4) (human, UniProt Q9NR61 27-524); assay: ECL (MSD electrochemiluminescence) binding assay, Fab on immobilised recombinant human DLL4
T8 construct: Bought recombinant human DLL4 (R&D Systems Cat#1506-D4/CF); also called rHuman DLL4; Delta-like 4

[30] = target: T8, Recombinant Human DLL4 (delta-like …); assay: ELISA, Fab on coated recombinant human DLL4, signal minus noise
[31] = target: T9, rHuman EGF R/Fc Chimera, CF (R&D Systems Cat#344-ER) (human, UniProt P00533 25-645); assay: MSD Multispot ECL, antigen spotted on plate, Fab in solution; blank spot of the row 240
T9 construct: Bought recombinant Fc chimera; also called epidermal growth factor receptor; Fc part of the bought chimera not given

[32] = target: T10, rHuman Notch-1/Fc Chimera, CF (R&D Systems Cat#3647-TK) (human, UniProt P46531 19-526); assay: as above
T10 construct: Bought recombinant Fc chimera; Fc part of the bought chimera not given

[33] = target: T11, rHuman P-Cadherin/Fc Chimera, CF (R&D Systems Cat#861-PC) (human, UniProt P22223 108-654); assay: as above
T11 construct: Bought recombinant Fc chimera; Fc part of the bought chimera not given

[34] = target: T12, rHuman HGF R/c-MET/Fc Chimera, CF (R&D Systems Cat#358-MT/CF) (human, UniProt P08581 25-932); assay: as above
T12 construct: Bought recombinant Fc chimera; also called HGF R/Fc; hepatocyte growth factor receptor; Fc part of the bought chimera not given
T12 sequence (P08581 25-932, change not shown): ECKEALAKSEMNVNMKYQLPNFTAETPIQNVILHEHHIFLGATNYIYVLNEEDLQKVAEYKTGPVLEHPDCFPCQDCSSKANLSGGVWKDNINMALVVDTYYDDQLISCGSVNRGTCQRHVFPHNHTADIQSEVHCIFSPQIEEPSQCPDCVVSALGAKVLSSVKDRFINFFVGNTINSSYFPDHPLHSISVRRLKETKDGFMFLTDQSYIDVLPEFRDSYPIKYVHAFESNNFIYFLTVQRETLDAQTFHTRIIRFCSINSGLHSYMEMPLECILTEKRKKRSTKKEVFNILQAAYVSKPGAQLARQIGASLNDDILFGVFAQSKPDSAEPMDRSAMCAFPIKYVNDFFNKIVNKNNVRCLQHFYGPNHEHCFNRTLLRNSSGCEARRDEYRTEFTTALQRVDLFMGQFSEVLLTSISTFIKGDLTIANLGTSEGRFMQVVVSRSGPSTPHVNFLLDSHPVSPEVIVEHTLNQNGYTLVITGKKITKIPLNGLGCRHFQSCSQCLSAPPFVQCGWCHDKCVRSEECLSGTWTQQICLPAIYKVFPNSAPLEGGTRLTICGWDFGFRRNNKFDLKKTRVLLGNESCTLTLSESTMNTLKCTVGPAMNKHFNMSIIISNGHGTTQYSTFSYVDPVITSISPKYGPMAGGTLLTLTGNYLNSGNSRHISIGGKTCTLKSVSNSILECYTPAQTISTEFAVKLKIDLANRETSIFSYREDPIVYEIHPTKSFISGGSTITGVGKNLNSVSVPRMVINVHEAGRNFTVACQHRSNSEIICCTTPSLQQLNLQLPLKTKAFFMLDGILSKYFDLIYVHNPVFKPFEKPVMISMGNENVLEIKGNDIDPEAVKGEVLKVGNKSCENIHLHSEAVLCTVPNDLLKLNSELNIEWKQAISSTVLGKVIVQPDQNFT

[35] = target: T13, rHuman Erythropoietin R/Fc Chimera, CF (R&D Systems Cat#963-ER) (human, UniProt P19235 25-250); assay: as above
T13 construct: Bought recombinant Fc chimera; also called EPO R; EPO R/Fc; Fc part of the bought chimera not given
T13 sequence (looked up): T4 sequence (looked up)

ECL signal/noise ratio [1]: 1.5
ECL signal/noise ratio [2]: 2.2
ECL signal/noise ratio [3]: 1.1
ECL signal/noise ratio [4]: 1.2
ECL signal/noise ratio [5]: 1.6
ECL signal/noise ratio [6]: 1.1
ECL signal/noise ratio [7]: 1.8
ECL signal/noise ratio [8]: 1.7
ECL signal/noise ratio [9]: 3
ECL signal/noise ratio [10]: 1.4
ECL signal/noise ratio [11]: 2.5
ECL signal/noise ratio [12]: 2.9
ECL signal/noise ratio [13]: 3.4
ECL signal/noise ratio [14]: 2.6
ECL signal/noise ratio [15]: 1.3
ECL signal/noise ratio [16]: 36.3
ECL signal/noise ratio [17]: 1.6
ECL signal/noise ratio [18]: 2.2
ECL signal/noise ratio [19]: 2.8
ECL signal/noise ratio [20]: 2.9
ECL signal/noise ratio [21]: 3.1
ECL signal/noise ratio [22]: 1.6
ECL signal/noise ratio [23]: 21.1
ECL signal/noise ratio [24]: 2.6
ECL signal/noise ratio [25]: 2
ECL signal/noise ratio [26]: 1.8
ECL signal/noise ratio [27]: 2.5
ECL signal/noise ratio [28]: 4.4
B1: Fab VH5-51_IGHD5-18*01>3_IGHJ4*01 & V3-4_IGLJ1*01 (Fab, V domains shown)
VH: EVQLVQSGAEVKKPGESLKISCKGSGYSFTSYWIGWVRQMPGKGLEWMGIIYPGDSDTRYSPSFQGQVTISADKSISTAYLQWSSLKASDTAMYYCARRGYSYGYDYFDYWGQGTLVTVSS
VL: QTVVTQEPSFSVSPGGTVTLTCGLSSGSVSTSYYPSWYQQTPGQAPRTLIYSTNTRSSGVPDRFSGSILGNKAALTITGAQADDESDYYCVLYMGSGISYVFGTGTKVTVL
notes: Tested as a Fab made in E. coli; The heavy chain vector (Plasmid A) adds CH1 with His6 and Flag tags, and the lambda light chain vector (Plasmid E) adds CL; also called Wt; wildtype

ECL signal [29]: 12900
ELISA (Signal-Noise) [30]: 0.07
B2: Fab VH5-51_IGHD5-18*01>3_IGHJ4*01 G100K/G104T/T58A & V3-4_IGLJ1*01 (Fab, V domains shown)
VH: B1 VH with T58A, G100K, G104T
VL: B1 VL
notes: Fab expressed in E. coli: VH joined to CH1 (Plasmid A, His6 and Flag tags), VL joined to lambda CL (Plasmid E); also called H:KT T58A

ECL signal [29]: 8430
ELISA (Signal-Noise) [30]: 0.05
B3: Fab VH5-51_IGHD5-18*01>3_IGHJ4*01 G100K/G104T/S56G & V3-4_IGLJ1*01 (Fab, V domains shown)
VH: B1 VH with S56G, G100K, G104T
VL: B1 VL
notes: Fab expressed in E. coli: VH joined to CH1 (Plasmid A, His6 and Flag tags), VL joined to lambda CL (Plasmid E); also called H:KT S56G

ECL signal [31]: 761
ECL signal [32]: 561
ECL signal [33]: 302
ECL signal [34]: 735
ECL signal [35]: 424
B4: Fab VH5-51_IGHD5-18*01>3_IGHJ4*01 G100K/G104T W33A & V3-4_IGLJ1*01 (Fab, V domains shown)
VH: B1 VH with W33A, G100K, G104T
VL: B1 VL
notes: Fab made in E. coli; VH cloned into Plasmid A (CH1, His6 and Flag tags), lambda VL into Plasmid E (lambda CL); also called KT W33A

— patent US20120316071A1 (published 2012)
